# Data as given in the DeepSol protein solubility set.
# Assay: soluble on expression in E. coli; label from the status in PepcDB or PDB records
row,Sequence,soluble on expression in E. coli
1,GPGSMQRHRTPEPGPRGASSQNPRRPPQTSAKSPARRVSRRSSAATTSAPGGIELTRAQQIEAKAARDAVVGAMTKSSPQAAKMFVESISLDVDVETTRQLLCSKKGFVALPSSIGVLCRQLRKLDLSGNGLTDLSPLATLQHLSNLNVAHNGLLASLKGLSGTCLSVLNISFCAVESLEGLEHTALTLRTFIANDNRLQLHSPLLADVVATAGEDAAEMEAAREHLPESLCRSSSHSGADLRAVAQRNYAIFSTFQQCETVVLSRNTRLCQLFPTWGVEEVAAECGEVPGRSSAAADDEGSDDAADGASTTMSADGDGGDSANRGKKHRASAAKRRDRRRIAVHPTDRSASNTPAAAREPFGDSPEMATYNQRRHALALAHPLSVFERLSRLRKLSLSGCELHSLPVRWFLPMVTELRLAQNHLTSLQPDGVILRSLHILDISNNLFASVASLRRCRYLEQLNVRGNPLIEEGVLQDKAAGLTTAERIADVAATTPSSGTSAAPIAVQQRLLRLFPNMKLLDGQPMMTAGQVRSAYMQRNARSAAERQDKLTEKGCSDGSAIVASLHEARDDVGNAHAASDDSERGSSSGDAPRTAPTARAEARSPARKARRADSAVIAAEADEKDNVVEAPLSVVKTAHAQIVRRERVLLRPGAAAASGSNTGAAGQKRKAGQTPTSPAAVVYGQAAVAKLLEQSRSRSAW,not soluble
2,MASEQEKTADFGFRTVAKDEKEVMVAEVFHSVAAKYDLMNDLMSFGIHRIWKRFTIECSGVRRNQRVLDLAGGTGDLTAKFSRMVGEGGEVILADINASMLKVGREKLRNKGIIDNINYVQANAEALPFPDDFFDCITISFGLRNVTDKNKALRSMYRVLKPGGRLLVLEFSKPVIKQLSTIYDAYSFHILPRIGEAVASDAGSYRYLAESIRMHPDQETLKGMMSDAGFDSVNYFNLTGGIVALHRGFKFLEHHHHHH,not soluble
3,ATTPSANQNWRLLRDESAQLRIADVLQRKEQFRPLAKRSFIFPASPQAVWLQVQLPAQKVPSWLWIFAPRVQYLDYYLVQDGQLVRDQHTGESRPFQERPLPSRSYLFSLPVDGKPMTLYVRMTSNHPLMAWFDQIDEAGLVGLE,soluble
4,MESITQIYRIGYGPSSSHTIGPRRAAEMFLDRNPRATSFRVTLYGSLAATGKGHLTDAAILAVLEAKAPTEIVWKPEIFQNFHPNGMLFESFDKEGKQLDDWLIYSIGGGVLANEHFNEQ,not soluble
5,MNADEWMTTFRENIAQTWQQPEHYDLYIPAITWHARFAYDKEKTDRYNERPWGGGFGLSRWDEKGNWHGLYAMAFKDSWNKWEPIAGYGWESTWRPLADENFHLGLGFTAGVTARDNWNYIPLPVLLPLASVGYGPVTFQMTYIPGTYNNGNVYFAWMRFQFL,soluble
6,AIAPTELSRTEKKSLIWLFKEHGLRVDGRSALRSRSVSVAVDVLPSTAGSSRVFVGRTNDVLVGINLELRQYNLPAHAEDDAKRGSIAFSVEFCGVASPEFQGRSTEVLEAELVSFLDTAYAASPEFLADLFCREQRLASDPGTLRVCCWDVYVDVLVLGASGGNILDAVTYAVRAALATTVVPSVYWQDSESGGSWELDDRAEYCALLNASNAPLSASGAFIPPLVRDSRTEHDQVTLVAPRWFIIDPCAEEETLAGCFLSVASDSAQHLRAIWKRGSLPVEPDVVLDAAQQCIRDSAYACQEMDHFISELVATEESESVDDVPG,soluble
7,MSLDYHKQFIGELSQVSYHIIGYGSYYEEALIKYLGESIERYATVIAGDLLSDRIVYASYNELKLLHKVMPLEYLQVFTQEQIALSCDLQMMMCDKMVTENDVLGWVKCPMFFEDAEMYVPAQMLCVGYKTNETVGERRIIPGFSTGTASHKTLEAAMCNSLIEYIQIDSMMLSWYTKKPCPKIIVDDPDIEVILEEARLGKDSLYDIIPIDMTVGEDNPLYTFGIILKNKYDEGPYLLFGVQAGLDPKHALLRGIMEASAISYSYYYNLLYQKASLANIECEEPLFLDLDSNVFYYAHPKDQDHKWKAFEPLISGEVLLSDLEDHSGKDKKEDLKTLLAYAKKVSPNAVFLDITPPEALEKGWYVTRVLMPELLEMCIPAFPFANHPRMRQFGGVTNAFVHPMPEGHHHHHH,soluble
8,MHHHHHHSENTFIFPATFMWGTSTSSYQIEGGTDEGGRTPSIWDTFCQIPGKVIGGDCGDVACDHFHHFKEDVQLMKQLGFLHYRFSVAWPRIMPAAGIINEEGLLFYEHLLDEIELAGLIPMLTLYHWDLPQWIEDEGGWTQRETIQHFKTYASVIMDRFGERINWWNTINEPYCASILGYGTGEHAPGHENWREAFTAAHHILMCHGIASNLHKEKGLTGKIGITLNMEHVDAASERPEDVAAAIRRDGFINRWFAEPLFNGKYPEDMVEWYGTYLNGLDFVQPGDMELIQQPGDFLGINYYTRSIIRSTNDASLLQVEQVHMEEPVTDMGWEIHPESFYKLLTRIEKDFSKGLPILITENGAAMRDELVNGQIEDTGRQRYIEEHLKACHRFIEEGGQLKGYFVWSFLDNFEWAWGYSKRFGIVHINYETQERTPKQSALWFKQMMAKNGF,soluble
9,KRRLEVKGEVNSITVYDDFAHHPEAILATLTALRDKVGGGVRILAVLEPRSNTMKMGVHKDDIAPALGRADAVFMLQPEQLSWEVADIANQCVQPAYWNANLDRLVDMIVAKAQPTDHILVMSNGSFGGIHQKILDKLKLK,not soluble
10,AHHHHHHGSLHLKEKLKGTTTVGLVCKEGVVLAADTRASLGNIIYAKNVTKIHKIDEHLAIAGAGDVGDILNLVRLLKAEANLYKSTVGKEMSVKALATLLANILNGSKYFPYLGWFLVGGYDEKPRLFSVDMVGGITEDNYAAAGSGMEFAYSILDSEYREEMSVNDGIKLAVKAINVAIKRDVFTGDGLLVVTITKDGYKEYRGAELEKMLK,not soluble
11,MADDPHVLAFLARVHQGRRDRVEDHLHEHFIRERNLHQRPQFPPLQLVPVQAEHEYEHPFPLVDVFKFSLQGDSVKTASSSWQGLQWKVKCSIYNLPGELLATRVSVDFFNLMDRVFKATVKYEMNEKFAAANEFAEVVIDSNHSTIVFPETGAFAPGRLVDGMLPTEIAVKIKLEHAEIVDQFSYNNQSWVMGTRWVRYGDECSVRMNFDVLKNLNPCHDKFFDDLREQVLSPKEARAFFDFASAIFNRSFMGLDLFHESVRNGLKFGFTTNWDSLNTVDSEFDFNSRTAFPGYQNVLYEQPSELTSISNRETAGMCQIFKLNLDPSDVTTRFQVASMNNVKSHTSQFTFYLENSPNGYLLIAGGCFQMESRQLVNLKLTLFDSGVSCRNIQTFRILHKEQSTIKVVIALLDDDKMEKMSRGKLLLNFQMHMNGTISNVVRNFEDQTKRIGDFAMPGLVTGYINCRDKKRIGVCKEHLANNSEHLNMLFFNTVFEDCGKNEITVNEDSDIVLDALDIIYHRSLAIFPAQINRVLDLAGYWLSATMHRFMEIAILHSTHISDSAKLELAAEHHFDIIKYVARHPRYASTYHLSLTDEEIMQVRIPADNEVDGGTGGRPRRVEDLMDLEEQQE,not soluble
12,MAHHHHHHMDVSRRLAGENHDFRRSTQVPALCTKPQGGKGMRLNVLHEGAVPANDFHSAHLTPYEMDEIKGYSEVYYVGQNCDRKVQAPVEGGHNKGYDDERGDYLIRLRDHIAYRYEVLSTLGSGSFGQVVKAVDHCKNCTVALKIIRNRKRFTAQAKIEVQILSHLKKGDPSGIYGIVQMIDNFTFRSHVCITYELLGCNLYTYLKQRRFKPLPLDVVRKIGAGVLVSLSYMWRENIIHCDLKPENILLRSPNDTAVKVIDLGSSCFENARLFTYIQSRFYRAPEVLLGCPYSRCIDLWSYGCVLCELASGYPIFPGESEQEQMACIMEFLGTPPRDFILRSPRKHEFFEASANYSPKLVPNSKLKIRFPGTKNIAAFLGLPEGDPFVSFVKLFLEWVPDSRATPRRAMKHPWIADEVNELLSKQKRNTAATGEDDSESKFHKALPRLPKIGK,not soluble
13,MSLENVDPFDIIRQFRSVIAKTSLQASSNIEGLDTVWNSDLVLEANFWHLVEILLSFRTSQEFLDKESSISSKPYNSSIIFEKELLQKDKNLYQIWLIIVWIEGNFPFVEKPSNIPSSKWTNTLVTSGLMSSDLDYPLRDCSVVINDKDKADDHVFYKYVYELLLCGNYDQIFEECKLSDNITLNMIMCGMQEYVDPSIDVQLKDEFEVQQGVKKHSLWRRAVYSLSQNDKLDKYERAIYSYLAGDIPNDEVLQTLNWDSELLVYLNQILKIEVENYLLQNGKVNNDELILSLPSNTMDLQSILNLLSAKHPEESEHPIRVLIGSVMLNTIPSVLHSSVSMLMNVVTGIENDNDIFGEPYLLRVVTHMTIFLEILNPGTISESDKTKLITAYISILKSQELYDLIPIYISFLSHNEAIEASSFILSNLEGKDIRKKQLEICNFLKLPVEDMLKRTTQCVFAETEGHHHHHH,not soluble
14,MAHHHHHHMDSMPPLSSPCLVEQEARQVPAGCFTRAVYALHSTDNEQTETAALTVRKLIKEEDQGMMRGAASSQIPLKRKGSKTNSAKSKYGKSGKLGRSSVVSWNLKSAPKITKAAGVTSANNNENREYVSPIVWCPVTPLMDNIYRSKWRQPMGRASSQAIDNEKNICIDETNVGENDLCMCKDVEAQFVLRGGERIYTLHYVTPLSMKRRETNEENSMCYGVLPVIRICVNPPVTP,not soluble
15,MSLKPRIAIVGLGLIGGSLARRLVNAGCEVTAWNHNDRPYATAEADGIICKPTLAALAETKPNVLVLCNPLKAMPEILGALKPLIDTETTTLTDVGSVKGMVRDQVKAIGLDGCYVGAHPMAGNELSGWEASDPTLYDDALWAITVDEHTEYRRFRAVADMIVNRCGNRLIVLDDATHDRCAALISHMPHVIATAMINELVANPNRNIAAALAAGSWRDMTRVALTDPNRTRAMVEEDAANVETLLRNMANRLTLVANVLHDMADTGVRPTEGDVKQMDRFFAQGQPFRDYKAASRQPEYAEHCATVELSIPENDWQRTLLESARRGEHIVRFDGERTAIAQARSVEGHHHHHH,soluble
16,MAGEKFQKKGKEKWKEKVWYTVEAPPYLGSKEVSVALGEDSNSMVNRVVEVPISELTGNFKKSNEKALFRITNCEGTKCKTIFIGHYIGDDYIRRLVRRRKERIDIIEDVKTSDNSIITVKIVVVTDGKVTNTKKFQIRKVLTDFILNKGLSLPYSEFVRYLIGDDIYNDMISATKDIYPLKKIEVRKSELVSLSGISEIHAGSQNSGEEPVVQNLEHHHHHH,not soluble
17,MATEVTFFDELKIDNKVDIIGNNVRGELPNIWLQYGQFKLKASGGDGTYSWYSENTSIATVDASGKVTLNGKGSVVIKATSGDKQTVSYTIKAPSYMIKVDKQAYYADAMSICKNLLPSTQTVLSDIYDSWGAANKYSHYSSMNSITAWIKQTSSEQRSGVSSTYNLITQNPLPGVNVNTPNVYAVCVE,soluble
18,MKVRRTEQIYLKENDTISYMCHLSKNLYNQVNYILRQQFLKGEKLTGYRDLVKLFQEPSEIEDHNNYQRLPAQTAQWTVKKTVMAWYSFFKSMKAWKKHPDKFKGRPRLPGYKETDGEFLLVFTNQQCRIRDGILKFPKIMNMEVKTRLNENEIKLKEVRIVPQGTGYMIEIVYEKETADMPITKPKRAMGIDIGVRNLVTIGNNIHEIGIAVKAGLLKSINQYFNKELARYRSINDLQGNERKQTVKIRKLFMKRNRKVKDIMHKVSKSIVEYAKIMNIDTIVIGHNNRWKDSSNMGKKNNQNFVQLPFNMLIYQIKYKAEEIGITVIMQNEDYTSKCSFLDNESIEHHDTYMGKRIHRGIFRSATGKLIHADLQSSYNIIKKAIPEAFANGIEGIGLYPRSLSIRQMITSKGGCLEHHHHHH,not soluble
